Data as given in patent publication US20130078247A1 (Boehringer Ingelheim, published 2013).

How the values were obtained:
[1] = target: T1, recombinant human DLL4 extracellular domain, C-terminally His-tagged (R&D Systems) (human, UniProt Q9NR61 25-522, biotinylated in the competition assays (sites not given)); test: periplasmic extract; hDLL4/hNotch1 AlphaScreen
T1 construct: also called rhDLL4; hDLL4; not shown: C-terminal His tag
Experimental: To this mixture, the acceptor beads and the streptavidin donor beads are added and further incubated for 1 hour at room temperature. Fluorescence is measured by reading plates on the Envision Multilabel Plate reader (Perkin Elmer, Waltham, Mass., USA) using an excitation wavelength of 680 nm and an emission wavelength of 520 nm.

[2] = target: T1, recombinant human DLL4 extracellular …; test: periplasmic extract; hDLL4 ELISA
[3] = target: T1, recombinant human DLL4 extracellular …; test: periplasmic extract; Biacore off-rate
[4] = target: T2, mouse DLL4, full length, overexpressed on CHO or HEK293 cells (mouse, UniProt Q9JI71 27-686); test: periplasmic extract; FMAT, Notch1/Fc on CHO-mDLL4
T2 construct: whole, on cells; also called CHO-mDLL4; CHO-mDII4
Excerpt: (§1) All calculations are based on the FL1_total signal which comprises the average of the fluorescence per well times the number of counts per well.
Target sequence in this assay (Q9JI71 27-686): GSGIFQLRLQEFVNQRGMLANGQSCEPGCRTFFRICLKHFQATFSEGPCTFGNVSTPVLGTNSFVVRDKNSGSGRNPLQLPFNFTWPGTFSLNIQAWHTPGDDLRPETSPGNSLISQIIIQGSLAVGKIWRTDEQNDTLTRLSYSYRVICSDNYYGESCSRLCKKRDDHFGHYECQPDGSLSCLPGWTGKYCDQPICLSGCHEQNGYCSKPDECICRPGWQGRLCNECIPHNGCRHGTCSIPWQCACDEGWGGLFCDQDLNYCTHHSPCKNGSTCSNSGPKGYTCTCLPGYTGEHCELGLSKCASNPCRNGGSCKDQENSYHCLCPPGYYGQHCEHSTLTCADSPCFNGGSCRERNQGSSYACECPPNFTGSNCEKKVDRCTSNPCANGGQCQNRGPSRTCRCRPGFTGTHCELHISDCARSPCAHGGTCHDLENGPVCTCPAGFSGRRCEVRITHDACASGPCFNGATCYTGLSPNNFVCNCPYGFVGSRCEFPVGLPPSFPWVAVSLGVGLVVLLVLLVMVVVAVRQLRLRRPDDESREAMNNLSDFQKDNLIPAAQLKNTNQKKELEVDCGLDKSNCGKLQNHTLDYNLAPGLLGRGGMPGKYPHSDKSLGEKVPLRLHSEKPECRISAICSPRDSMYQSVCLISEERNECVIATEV

[5] = target: T3, human DLL4, full length, overexpressed on CHO or HEK293 cells (human, UniProt Q9NR61 27-685); test: periplasmic extract; FMAT, Notch1/Fc on CHO-hDLL4
T3 construct: also called CHO-hDLL4; CHO-hDII4
Excerpt: as §1

[6] = target: T4, cynomolgus DLL4, full length, overexpressed on cells (cynomolgus, UniProt Q9NR61 27-685 (human entry)); test: FACS titration on HEK293-cDLL4 cells
T4 construct: also called CHO-cDLL4; cDLL4
T4 chain: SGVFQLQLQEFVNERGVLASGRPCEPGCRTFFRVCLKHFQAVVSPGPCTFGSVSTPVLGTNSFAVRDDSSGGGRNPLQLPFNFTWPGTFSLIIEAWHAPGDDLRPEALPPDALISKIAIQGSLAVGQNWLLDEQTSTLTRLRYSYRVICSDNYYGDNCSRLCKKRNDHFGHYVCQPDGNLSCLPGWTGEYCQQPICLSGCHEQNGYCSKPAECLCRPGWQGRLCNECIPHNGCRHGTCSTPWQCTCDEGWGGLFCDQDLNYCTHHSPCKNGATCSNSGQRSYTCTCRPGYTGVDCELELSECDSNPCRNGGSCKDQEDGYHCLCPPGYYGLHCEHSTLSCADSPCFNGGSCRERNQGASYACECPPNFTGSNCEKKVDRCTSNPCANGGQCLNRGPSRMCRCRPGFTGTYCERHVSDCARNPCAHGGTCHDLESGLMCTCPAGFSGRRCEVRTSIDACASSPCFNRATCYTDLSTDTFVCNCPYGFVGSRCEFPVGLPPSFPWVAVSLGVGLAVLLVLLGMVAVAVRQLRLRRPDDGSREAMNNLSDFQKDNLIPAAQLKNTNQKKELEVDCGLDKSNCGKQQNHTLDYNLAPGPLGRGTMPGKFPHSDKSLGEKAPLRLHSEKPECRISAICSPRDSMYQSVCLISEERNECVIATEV
Experimental: In order to determine the cynomologus cross-reactivity of the VHHs, a FACS binding experiment is performed. Cynomolgus DII4 expressing HEK293 cells (transient or stable transfection) are used for a titration binding experiment of the VHHs. After a 30 minutes incubation on ice, all samples are washed and detection is performed by applying anti-c-myc-Alexa647 (Santa Cruz Biotechnology, Santa Cruz, Calif., USA). Human and mouse DII4 overexpressing HEK293 cells are taken as reference. The mean MCF value is determined on the FACS Array and used for calculation of the EC₅₀ value (see FIG. 9).

[7] = target: T1, recombinant human DLL4 extracellular …; test: cell-based or functional assay
[8] = target: T3, human DLL4, full length, overexpressed …; test: cell-based or functional assay
[9] = target: T5, human Ang2 (human, UniProt O15123 19-496, limits assumed); test: competition ELISA hAng2/hTie2-Fc
T5 construct: also called hAng2; human Angiopoietin2
T5 sequence (looked up): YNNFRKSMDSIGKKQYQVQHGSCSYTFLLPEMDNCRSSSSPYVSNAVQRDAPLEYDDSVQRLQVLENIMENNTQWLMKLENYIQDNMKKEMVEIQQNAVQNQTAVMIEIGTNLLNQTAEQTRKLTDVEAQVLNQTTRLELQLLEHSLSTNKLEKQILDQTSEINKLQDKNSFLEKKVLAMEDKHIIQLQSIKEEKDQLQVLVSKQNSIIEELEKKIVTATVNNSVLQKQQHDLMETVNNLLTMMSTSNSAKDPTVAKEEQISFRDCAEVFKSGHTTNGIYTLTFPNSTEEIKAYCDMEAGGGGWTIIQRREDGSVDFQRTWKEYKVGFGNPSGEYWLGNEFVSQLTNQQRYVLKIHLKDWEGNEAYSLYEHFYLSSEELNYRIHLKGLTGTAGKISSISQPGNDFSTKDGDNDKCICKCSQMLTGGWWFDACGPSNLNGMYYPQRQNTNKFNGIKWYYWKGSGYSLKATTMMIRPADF
Experimental: (§2) This assay is also performed after incubation of the VHH with 0.5 μM human serum albumin.

[10] = target: T6, recombinant human Jagged-1 (Alexis) (human, UniProt P78504 34-1067, limits assumed); test: rhDLL1/rhJAG1 binding ELISA
T6 construct: also called hJagged-1; hJAG1

[11] = target: T7, recombinant human DLL1 (Alexis) (human, UniProt O00548 18-545, limits assumed); test: rhDLL1/rhJAG1 binding ELISA
T7 construct: also called hDLL1; rhDLL1
T7 sequence (looked up): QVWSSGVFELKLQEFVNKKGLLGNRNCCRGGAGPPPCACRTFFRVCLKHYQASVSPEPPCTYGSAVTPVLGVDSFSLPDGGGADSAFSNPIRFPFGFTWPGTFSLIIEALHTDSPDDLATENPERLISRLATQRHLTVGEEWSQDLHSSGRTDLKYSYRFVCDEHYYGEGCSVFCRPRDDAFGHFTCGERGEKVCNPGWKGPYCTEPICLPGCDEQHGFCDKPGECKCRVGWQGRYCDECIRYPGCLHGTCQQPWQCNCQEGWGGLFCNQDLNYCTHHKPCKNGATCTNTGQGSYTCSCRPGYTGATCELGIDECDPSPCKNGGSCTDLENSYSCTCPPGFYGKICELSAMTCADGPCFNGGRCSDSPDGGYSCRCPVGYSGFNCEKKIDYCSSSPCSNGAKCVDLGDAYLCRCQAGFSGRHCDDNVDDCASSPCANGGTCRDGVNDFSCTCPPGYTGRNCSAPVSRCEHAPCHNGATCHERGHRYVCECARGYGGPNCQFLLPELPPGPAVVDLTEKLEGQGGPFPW

[12] = target: T8, recombinant mouse DLL4 extracellular domain, C-terminally His-tagged (R&D Systems) (mouse, UniProt Q9JI71 27-525); test: binding ELISA on coated rmDLL4
T8 construct: range 1-525; also called rmDLL4; mDLL4; not shown: C-terminal His tag
Experimental: In order to determine cross-reactivity to mouse DII4 a binding ELISA is performed. […] Wells are blocked with a casein solution (1% in PBS). VHHs are applied as dilution series and binding is detected using a mouse anti-myc (Roche) and an anti-mouse-AP conjugate (Sigma, St Louis, Mo., USA) (FIG. 7).

[13] = target: T5, human Ang2; test: competition ELISA hAng2/hTie2-Fc, with 0.5 uM HSA [continued]
Experimental: as §2

[14] = target: T2, mouse DLL4, full length, overexpressed …; test: FMAT competition: labelled hNotch1-Fc on CHO-mDLL4 cells
Excerpt: as §1

T8 sequence (Q9JI71 27-525 limits assumed): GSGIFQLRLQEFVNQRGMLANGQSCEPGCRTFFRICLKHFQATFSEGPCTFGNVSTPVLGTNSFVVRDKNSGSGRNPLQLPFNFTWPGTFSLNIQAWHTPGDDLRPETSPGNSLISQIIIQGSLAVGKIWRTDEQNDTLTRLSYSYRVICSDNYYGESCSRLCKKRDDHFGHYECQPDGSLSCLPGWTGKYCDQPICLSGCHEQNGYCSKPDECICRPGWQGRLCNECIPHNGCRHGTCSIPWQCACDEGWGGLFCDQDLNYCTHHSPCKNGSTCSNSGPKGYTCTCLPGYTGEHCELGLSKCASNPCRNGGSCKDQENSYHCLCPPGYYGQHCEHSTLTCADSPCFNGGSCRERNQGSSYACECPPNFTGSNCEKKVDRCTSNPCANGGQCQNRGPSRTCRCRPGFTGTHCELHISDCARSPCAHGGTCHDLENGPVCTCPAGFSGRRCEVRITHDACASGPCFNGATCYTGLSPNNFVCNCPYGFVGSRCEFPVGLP

B1: DLLBII17G10 (VHH)
VHH: EVQLVESGGGLVQAGGSLRLSCAASGSTFSSYAMGWYRHQAPGKQRELVAAISSDGSTHYADSVKGRFTISRDNAKNTMYLQMNSLKPEDTAVYYCNTKTFGSNWYDDYWGQGTQVTVSS
notes: not shown: C-terminal c-myc and His6 tags
With B1 the “% inhibition” value [1] was 82%, the “% inhibition” value [2] was 93% and the koff [3] was 0.0015 s⁻¹.

B2: DLLBII101G08 (VHH)
VHH: EVQLVESGGGLVQAGGSLRLSCAASGRTFSSYAMAWFRQAPGKEREFVAAIRWSGGTAYYADSVQGRFTISRDNAKNTVYLQMNSLKPEDTAVYYCANRAADTRLGPYEYDYWGQGTQVTVSS
notes: also called 101G8; DLLBII101G8; not shown: C-terminal c-myc and His6 tags
For B2, the “% inhibition” value [4] was 92%, the “% inhibition” value [5] was 91% and the “EC50 (read off the curve)” value [6] was ~8 nM. The “concentration giving complete inhibition, HUVEC proliferation assay” value [7] was 10 µM and the “IC50, DLL4/Notch1 reporter assay (luciferase; co-culture with HEK293-hDII4)” value [8] was 2760 nM.

B3: 00045 (VHH)
VHH: EVQLVESGGGLVQPGGSLRLSCAASGFALDYYAIGWFRQAPGKEREGVSCISSSDGITYYADSVKGRFTISRDNSKNTVYLQMNSLRPEDTAVYYCATDSGGYIDYDCMGLGYDYWGQGTLVTVSS
In the case of B3, the “IC50 (read off the curve)” value [9] is reported as ~0.1 nM.

B4: DLLBII115A05 (VHH)
VHH: EVQLVESGGGLVQPGGSLRLSCAASGFTFGSYDMSWVRRSPGKGPEWVSSINSGGGSTYYADFVKGRFTISRDNAKNTLYLQMNSLKPEDTAVYYCAADRYIRARQGDYWGAYEYDYWGQGTQVTVSS
notes: also called 115A5; DLLBII115A5; not shown: C-terminal c-myc and His6 tags
With B4 the “% inhibition” value [4] was 84%, the “% inhibition” value [5] was 74% and the “concentration giving complete inhibition, HUVEC proliferation assay” value [7] was 10 µM. For the same binder, the “IC50, DLL4/Notch1 reporter assay (luciferase; co-culture with HEK293-hDII4)” value [8] was 1740 nM.

B5: DLLBII133G05 (VHH)
VHH: EVQLVESGGGLVQPGGSLRLSCAASGFTFGSYDMSWVRRSPGKGPEWVSAINSGGGSTYYTDYVKGRFTISRDNAKNTLYLQMNSLKPEDTAVYYCAADRYIWARQGEYWGAYAYDYWGQGTQVTVSS
notes: as for B1
B5 was tested, and the binding result [10] was “no binding”, the binding result [11] was “no binding” and the “EC50 (read off the curve)” value [12] was ~0.5 nM.

B6: 00042 (VHH)
VHH: EVQLVESGGGLVQPGGSLRLSCAASGFTLDDYAIGWFRQAPGKEREGVSSIRDNDGSTYYADSVKGRFTISSDNSKNTVYLQMNSLRPEDTAVYYCAAVPAGRLRFGEQWYPLYEYDAWGQGTLVTVSS
B6 was tested, and the “IC50 (read off the curve)” value [13] was ~0.6 nM and the “IC50 (read off the curve)” value [9] was ~0.6 nM.

B7: DLLBII17C01 (VHH)
VHH: EVQLVESGGGLVQAGGSLRLSCAASGFTFDDYPIGWLRQAPGKEREGVSCISSSDDSTYYADSVKGRFTISSNNAKNTVYLQMNSLKPEDTAVYYCAVRLFSGGCAVVAGTSWADFGSSGQGTQVTVSS
notes: also called DLLBII17C1; not shown: C-terminal c-myc and His6 tags
With B7 the “% inhibition” value [1] was 84%, the “% inhibition” value [2] was 82% and the koff [3] was 0.00056 s⁻¹.

B8: DLLBII17F10 (VHH)
VHH: EVQLVESGGGLVQAGGSLRLSCASSGRTLLNYAMGWFRQAPGKEREFVSGINWSGGSTYYADSVKGRFTISRDNAENTVYLHMNSLKPEDTAVYYCAAAHDNYWFTDDSLGRGLKYWGQGTQVTVSS
notes: as for B1
For B8, the “% inhibition” value [1] was 88%, the “% inhibition” value [2] was 98% and the binding result [12] was “no binding (tested: 2.5e-7 M)”.

B9: 78B04 (VHH)
VHH: EVQLVESGGGLVQAGGSLRLSCAASGRTFSNYIMGWFRQAPGKEREFVAGISRYGDYTYYADSVKGRFTISRDNVKNTVYLRMNSLKPDDTAVYYCAANEGYCSGYGCYEDSGQYDYWGQGTQVTVSS
notes: also called DLLBII78B04
B9: binds [14].

B10: DLLBII19D10 (VHH)
VHH: EVQLVESGGGLVQAGDSLRLSCAASGRTVGSYDMSWVRQGPGKEREWVSSINSGVGKTYYADSVKGRFTIFRDNAKNMVYLQMNNLKPEDTAVYYCATEMDGSRYVEGQGTQVTVSS
notes: as for B1
In the case of B10, the “% inhibition” value [1] is reported as 85%, the “% inhibition” value [2] is reported as 98% and the koff [3] is reported as 0.0013 s⁻¹.

B11: DLLBII55D12 (VHH)
VHH: EVQLVESGGGLVQPGGSLRLSCAASGFTFDDYAIGWFRQAPGKEPEGISCISSSGGITYYADSVKGRFTISRDNAKNTVYLQMNSLKPEDTAVYYCATPGIAACRGIHYTGQGTQVTVSS
notes: as for B1
B11: binds [6].
